{"source": "patent US8722052B2", "about": "“Vaccinia virus protein A46 peptide and use thereof” (priority 2008, dated 2014)", "system": "RAW264.7 cells", "assay": "MTT cell viability assay, RAW264.7", "type": "cell-based, murine", "experimental": "FIGS. 5A and B are bar charts showing the dose-dependent inhibitory effect of A464R on LPS-induced TNFα in murine RAW264.7 cells. A464 (SEQ ID NO. 20) was added to the cells at a concentration of 5, 20 or 50 μM 1 hour before stimulating with 100 ng/ml LPS. Supernatant was collected 24 hours after stimulation and assayed for TNFα by ELISA (A) and cells were assayed for viability by the MTT assay (B.). No peptides were added to the control wells (black bars). Data is representative of at least three experiments each performed in triplicate and is expressed as mean±s.d;\nFIGS. 10A and B are bar charts showing the effect of A464 on poly(I:C)-induced TNFα in murine RAW264.7 cells. Cells were seeded in 96 well plates (1.5×10^5 cells/nil) 24 hours before treatment. A464 (SEQ ID NO. 20) was added to the cells at a concentration of 5, 20 or 50 μM 1 hour before stimulating with 25 μg/ml Poly(I:C). […] Data is representative of at least three experiments each performed in triplicate and is expressed as mean±s.d;\nCell viability was measured by assessing mitochondrial function using an MTT (3-(4,5-Dimethylthiazol-2-yl)-2,5-diphenyltetrazolium bromide) assay. […] MTT was then removed and 200 μl per well of dimethyl sulphoxide (DMSO) was added and cells incubated for 20 min at 37° C. in the dark, prior to absorbance being read at 595 nm on a spectrophotometer."}
{"sequence": "KYSFKLILAEYRRRRRRRRR [Peptide A464]", "values": [{"measurement": "toxicity (MTT) in the presence of LPS", "setting": "100 ng/ml LPS, 24 h", "value": "no toxicity at the concentrations of 5 and 20 μM"}, {"measurement": "toxicity (MTT) in the absence of LPS", "setting": "no LPS", "value": "some cytotoxicity at 20 μM"}]}
